Measurements from patent publication US20240116984A1 (published 2024).
Starred links: 1 amine or outer side, 2 acyl side, 3 side chain; linkers in the order of their positions; H or OH if unused. Non-standard residues stand in square brackets, D forms with d. Primed or numbered codes have the meaning given here. aTyr = Tyr with backbone N-amino (N-aminated amide nitrogen), NN([C@@H](Cc1ccc(O[*:3])cc1)C(=O)[*:2])[*:1]; aIle′ = Ile with backbone N-amino (N-aminated amide nitrogen), CC[C@H](C)[C@@H](C(=O)[*:2])N(N)[*:1]; aVal = Val with backbone N-amino (N-aminated amide nitrogen), CC(C)[C@@H](C(=O)[*:2])N(N)[*:1]; N(NH2)Lys = NCCCC[C@H](NN)C(=O)O

target: Human tauP301L (0N4R), recombinant, N-terminal His tag (UniProt P10636 2-758); assay: capping of pre-formed Tau P301L fibers, inhibition of seeding in HEK293 tau-RD-YFP cells
Sequence (P10636 other isoform, or with tags, fused parts or gaps): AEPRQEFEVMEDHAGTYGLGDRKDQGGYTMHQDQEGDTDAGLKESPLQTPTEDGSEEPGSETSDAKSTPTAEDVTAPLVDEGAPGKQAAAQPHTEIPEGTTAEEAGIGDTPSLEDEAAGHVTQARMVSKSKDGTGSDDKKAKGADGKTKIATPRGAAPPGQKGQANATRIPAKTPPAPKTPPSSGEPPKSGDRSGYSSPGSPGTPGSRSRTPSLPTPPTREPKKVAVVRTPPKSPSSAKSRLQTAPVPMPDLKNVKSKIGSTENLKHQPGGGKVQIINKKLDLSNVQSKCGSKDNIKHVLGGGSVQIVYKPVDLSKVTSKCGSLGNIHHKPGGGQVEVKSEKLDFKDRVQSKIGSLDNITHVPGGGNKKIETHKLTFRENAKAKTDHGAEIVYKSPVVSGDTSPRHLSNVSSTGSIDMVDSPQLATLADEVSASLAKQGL

Row | IC50 [µM] | Binder
1 | > 20 | Ac-[aVal]Q[aIle′]INK-NH2 (SMILES CC[C@H](C)[C@H](NC(=O)[C@H]([C@@H](C)CC)N(N)C(=O)[C@H](CCC(N)=O)NC(=O)[C@H](C(C)C)N(N)C(C)=O)C(=O)N[C@@H](CC(N)=O)C(=O)N[C@@H](CCCCN)C(N)=O) [Compound 4, Ac-aVal-Gln-aIle-Ile-Asn-Lys-NH2]
2 | 4.7 | Ac-VQI[aVal]Y[N(NH2)Lys]-NH2 (SMILES CC[C@H](C)[C@H](NC(=O)[C@H](CCC(N)=O)NC(=O)[C@@H](NC(C)=O)C(C)C)C(=O)N(N)[C@H](C(=O)N[C@@H](Cc1ccc(O)cc1)C(=O)N(N)[C@@H](CCCCN)C(N)=O)C(C)C) [Compound 13, Ac-Val-Gln-Ile-aVal-Tyr-aLys-NH2]
3 | 4.8 | Ac-VQ[aIle′]V[aTyr]K-NH2 (SMILES CC[C@H](C)[C@@H](C(=O)N[C@H](C(=O)N(N)[C@@H](Cc1ccc(O)cc1)C(=O)N[C@@H](CCCCN)C(N)=O)C(C)C)N(N)C(=O)[C@H](CCC(N)=O)NC(=O)[C@@H](NC(C)=O)C(C)C) [Compound 12, Ac-Val-Gln-aIle-Val-aTyr-Lys-NH2]
